The results in this text go back to paper PMC11883276.

Assay [1] deals with endogenous human E-cadherin on MCF-7 cells (human) (UniProt P12830).
Assay [2] concerns the target full-length human E-cadherin fused to GFP at the C-terminus, on A431-D cells (A431-D^E-cad) (human) (UniProt P12830).
Assay [3] has as its target full-length wild-type human N-cadherin on A431-D cells (A431-D^N-cad; A431-D^N-cad+FGFR) (human) (UniProt P19022).
The target in assay [4] is Fc-tagged extracellular domain of N-cadherin (N-cad-Fc) (UniProt P19022).
Assay [5] has as its target Fc-tagged extracellular domain of E-cadherin (E-cad-Fc) (UniProt P12830).
The target in assay [6] is Fc-tagged extracellular domain of N-cadherin (N-cad-Fc) (UniProt P19022). Put plainly: density of cells attached to cadherin-coated substrates; A431-D^E-cad or A431-D^N-cad+FGFR cells counted 90 min after seeding in 0.5% serum with the fibronectin-blocking antibody 16G3 on E-cad-Fc or N-cad-Fc substrates; further samples treated with Gefitinib, BGJ398, DECMA-1 or anti-N-cad antibody.

The target in assay [7] is Fc-tagged extracellular domain of E-cadherin (E-cad-Fc) (UniProt P12830). The assay is described as above.
Assay [8] addresses Fc-tagged extracellular domain of N-cadherin (N-cad-Fc) (UniProt P19022). Nature of the assay: capillary shear flow cell adhesion assay; as a1, but with A431-D^N-cad+FGFR cells (N-cad co-expressed with FGFR1) on N-cad-Fc-coated capillaries.
Assay [9] shares this target. Nature of the assay: capillary shear flow cell adhesion assay; cadherin-Fc (50 µg/ml) physisorbed on the inner walls of glass capillaries, blocked with BSA; A431-D^E-cad or A431-D^N-cad cells bound 20 min under static conditions, room temperature, low-serum medium with 2 mM Ca2+, then flow increased every 30 s; WSS50 from fits to Eqn 1.
Assay [10] shares this target. This is another data set of the same source.
The target of assay [11] is Fc-tagged extracellular domain of E-cadherin (E-cad-Fc) (UniProt P12830). This is another data set of the same source.
Assay [12] has as its target Fc-tagged extracellular domain of N-cadherin (N-cad-Fc) (UniProt P19022). This is another data set of the same source.
Assay [13] has as its target Fc-tagged extracellular domain of E-cadherin (E-cad-Fc) (UniProt P12830). The source holds these as a separate data set.
Assay [14] addresses full-length wild-type human N-cadherin on A431-D cells (A431-D^N-cad; A431-D^N-cad+FGFR) (human) (UniProt P19022). This is another data set of the same source.

Substance “Fc-tagged extracellular domain of E-cadherin (E-cad-Fc) (from UniProt P12830 155-709) (Fc fusion)” yielded a relative change of cell stiffness during bead twisting (MTC), E-cad beads on MCF-7 cells in assay [1] of 17%. In addition, the relative change of cell stiffness during bead twisting (MTC), E-cad beads on A431-D^E-cad cells in assay [2] turned out to be 16%. Further, the relative change of cell stiffness during bead twisting (MTC), E-cad beads on A431-D^N-cad cells (no FGFR) in [3] was -1%.

For the substance “full-length human E-cadherin fused to GFP at the C-terminus, on A431-D cells (A431-D^E-cad) (from UniProt P12830 23-882) (receptor)”, the RMS traction stress of A431-D^E-cad cells on N-cad-Fc-coated 40 kPa gels, 0.5% serum in assay [4] stood at 82 Pa. Besides, the RMS traction stress of A431-D^E-cad cells on E-cad-Fc-coated 40 kPa gels, 0.5% serum in [5] was determined as 160 Pa. The figures for the density of cells retained on the substrate in assay [6] and in assay [7] were 19 cells/mm^2 and 25 cells/mm^2, respectively.

On to “full-length wild-type human N-cadherin on A431-D cells (A431-D^N-cad; A431-D^N-cad+FGFR) (from UniProt P19022 26-906) (receptor)”, for which the density of cells attached to the substrate in assay [6] was 22 cells/mm²; in assay [7] it was 15 cells/mm². Besides, the WSS50 (wall shear stress at which 50% of the cells are retained) in assay [8] is 17 dynes/cm^2; in [9] it was 15 dynes/cm^2. For the same substance, in assay [10], the RMS traction stress of A431D^N-cad cells (no FGFR) on N-cad-Fc-coated 40 kPa gels came to 85 Pa. For the same substance, in assay [11], the RMS traction stress of A431D^N-cad cells (no FGFR) on E-cad-Fc-coated 40 kPa gels was 88 Pa. The substance further displayed an RMS traction stress of A431-D^N-cad+FGFR cells on N-cad-Fc-coated 40 kPa gels, 0.5% serum in assay [12] of 176 Pa. The substance further returned an RMS traction stress of A431-D^N-cad+FGFR cells on E-cad-Fc-coated 40 kPa gels, 0.5% serum in assay [13] of 100 Pa.

In turn, “Fc-tagged extracellular domain of N-cadherin (N-cad-Fc) (from UniProt P19022 160-724) (Fc fusion)” registered a relative change of cell stiffness during bead twisting (MTC), N-cad beads on A431-D^N-cad+FGFR cells in [14] of 17%. Moreover, the relative change of cell stiffness during bead twisting (MTC), N-cad beads on A431-D^E-cad cells in assay [2] was -3.6%. Besides, the relative change of cell stiffness during bead twisting (MTC), N-cad beads on A431-D^N-cad cells (no FGFR) in assay [3] was 4%.
